Test results from US20110131028A1, “CELL POPULATION SYSTEM AND PROCESS” (priority 2006, published 2011).

Tested on: B cells isolated from spleen
Assay: Survival of unstimulated B cells in culture, lognormal time-to-die fit
Type: cell-based
Details: increasing IL-4 concentration; FIG. 3D
Protocol: As indicated above, the probability distribution is determined by simulating the decreasing size of a cell population over time in the absence of cell division. For example, when naive T or B lymphocytes are purified from lymphoid tissue and placed in tissue culture without stimulation, they progressively die by apoptosis, apparently from the absence of homeostatic survival signals that are present in vivo. To determine a probability distribution representing probabilities for cell death, small resting B cells from spleen/lymphnode can be placed in culture under different conditions and their viability measured by propidium iodide uptake at step 202. Cell numbers can be counted by reference to beads, as described in Deenick.
At step 204, the two parameters of the lognormal probability distribution, namely the mean μ and standard deviation σ, are determined using a standard fitting procedure (the Matlab fmincon function) that varies μ and σ to obtain the closest match between the corresponding lognormal survival curve (i.e., the simulated ‘survival curve’ representing the decreasing size of the cell population over time, the curve being generated from a lognormal probability distribution representing probabilities for times to die with distribution parameters μ and σ) and the experimental data. […]

B1: IL-4: cytokine that affects B cell viability without stimulating cell division (protein, UniProt P05112 25-153, looked up)
Interleukin-4: HKCDITLQEIIKTLNSLTEQKTLCTELTVTDIFAASKNTTEKETFCRAATVLRQFYSHHEKDTRCLGATAQQFHRHKQLIRFLKRLDRNLWGLAGLNSCPVKEANQSTLENFLERLKTIMREKYSKCSS
With B1 the “mean time to die μ” value was “increases”.
